B1: Mouse ApoMFc-S1P: Mouse ApoM-mouse IgG1Fc fusion (mApoM-Fc) loaded with S1P (protein)
chain: NQCPEHSQLTALGMDDTETPEPHLGLWYFIAGAAPTTEELATFDPVDNIVFNMAAGSAPRQLQLRATIRTKSGVCVPRKWTYRLTEGKGNMELRTEGRPDMKTDLFSSSCPGGIMLKETGQGYQRFLLYNRSPHPPEKCVEEFKSLTSCLDFKAFLVTPRNQEACPLSSKWISSASSAKTTPPSVYPLAPGSAAQTNSMVTLGCLVKGYFPEPVTVTWNSGSLSSGVHTFPAVLQSDLYTLSSSVTVPSSTWPSETVTCNVAHPASSTKVDKKIVPRDCGCKPCICTVPEVSSVFIFPPKPKDVLTITLTPKVTCVVVDISKDDPEVQFSWFVDDVEVHTAQTQPREEQFNSTFRSVSELPIMHQDWLNGKEFKCRVNSAAFPAPIEKTISKTKGRPKAPQVYTIPPPKEQMAKDKVSLTCMITDFFPEDITVEWQWNGQPAENYKNTQPIMDTDGSYFVYSKLNVQKSNWEAGNTFTCSVLHEGLHNHHTEKSLSHSPGK
B2: Free ApoM: free ApoM that is not associated with HDL; 26-kDa protein (protein, UniProt O95445 1-188, looked up)
Apolipoprotein M: MFHQIWAALLYFYGIILNSIYQCPEHSQLTTLGVDGKEFPEVHLGQWYFIAGAAPTKEELATFDPVDNIVFNMAAGSAPMQLHLRATIRMKDGLCVPRKWIYHLTEGSTDLRTEGRPDMKTELFSSSCPGGIMLNETGQGYQRFLLYNRSPHPPEKCVEEFKSLTSCLDSKAFLLTPRNQEACELSNN

Key:
S1P1 receptor [1] = biological target: T1, S1P1 receptor (Homo sapiens, UniProt P21453); assay: Nanobit split luciferase assay, Gi-alpha coupling; format: cell-based; settings: transfected 293A cells; 1000 nM-0.3 nM S1P
T1 construct: expressed in transfected cells; host or cells: Human 293A cells, transient PEI transfection
Method: (§1) FIGS. 5A-5B. Nanobit analysis of Human ApoMFc-S1P, Mouse ApoMFc-S1P, or BSA-S1P (Positive Control). […] BSA-S1P is the well-established activator of the S1PR1 and it was tested whether Human ApoMFc-S1P, Mouse ApoMFc-S1P gave equivalent induction of receptor activation. Data are the means of triplicate wells with the baseline (pre-stimulation) signal subtracted from the final luciferase signal and graphs are expressed with standard deviation.
(§2) The S1P receptors are members of the G-protein coupled receptor (GPCR) superfamily. Receptor activation is characterized by immediate activation of a G-protein complex (alpha-beta-gamma) that activates multiple intracellular signaling pathways and then secondary activation of coupling to the protein beta-arrestin, which may cause receptor internalization and desensitization as well as activation of other intracellular signaling pathways. […]
(§3) There are two general forms of this assay. […] Upon activation of the GPCR, the G-Protein alpha-beta-gamma complex […] and Luciferase activity may be detected by measuring emitted light in the presence of luciferase substrate (luciferin). […] It is notable that G-Protein assay results in decreased relative fluorescence with increased receptor activation, while the Beta-arrestin coupling assay results in increased relative fluorescence with increased receptor activation. […]
Target sequence in this assay (P21453 whole entry): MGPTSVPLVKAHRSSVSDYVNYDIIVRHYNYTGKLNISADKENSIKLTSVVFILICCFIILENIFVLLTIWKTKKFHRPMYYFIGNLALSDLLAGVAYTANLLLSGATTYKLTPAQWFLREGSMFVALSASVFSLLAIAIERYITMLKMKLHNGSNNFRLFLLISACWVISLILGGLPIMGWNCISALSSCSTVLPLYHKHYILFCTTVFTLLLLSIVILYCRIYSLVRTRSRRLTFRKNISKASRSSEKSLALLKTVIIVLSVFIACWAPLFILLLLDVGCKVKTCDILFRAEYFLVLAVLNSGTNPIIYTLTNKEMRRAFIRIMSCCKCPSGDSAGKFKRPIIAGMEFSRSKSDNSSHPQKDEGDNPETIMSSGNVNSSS

S1P1 receptor [2] = biological target: T1, S1P1 receptor; assay: Nanobit split luciferase assay, beta-arrestin coupling; format: cell-based; settings: transfected 293A cells; 1000 nM-0.3 nM S1P
Method: as §1, §2, §3
Target sequence in this assay (P21453 whole entry): as above
Target sequence in this assay (P49407 whole entry partner): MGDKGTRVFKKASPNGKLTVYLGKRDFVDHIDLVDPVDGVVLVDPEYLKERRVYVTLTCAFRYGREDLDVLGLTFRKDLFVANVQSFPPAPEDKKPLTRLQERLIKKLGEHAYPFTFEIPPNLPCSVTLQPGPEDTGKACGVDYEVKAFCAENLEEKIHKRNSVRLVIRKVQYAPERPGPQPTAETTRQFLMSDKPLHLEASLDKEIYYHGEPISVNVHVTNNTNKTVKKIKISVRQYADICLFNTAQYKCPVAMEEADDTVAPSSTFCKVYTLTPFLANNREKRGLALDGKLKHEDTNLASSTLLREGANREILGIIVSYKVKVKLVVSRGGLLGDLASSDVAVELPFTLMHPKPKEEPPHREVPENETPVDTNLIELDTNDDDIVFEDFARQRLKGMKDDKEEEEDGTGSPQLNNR

HUVECs = assay: Trans-endothelial electrical resistance (TEER); format: cell-based, human; settings: 4 μg/well, 250 nM S1P, 6 hour time point
Method: FIG. 4. Human and Mouse ApoM-Fc-S1P enhanced endothelial Barrier Protection. Human ApoMFc-S1P (4 μg/well, 250 nM S1P), Mouse ApoMFc-S1P (4 μg/well, 250 nM S1P), or BSA-S1P (250 nM S1P; Positive Control) were analyzed using transepithelial/transendothelial electrical resistance (TEER). The results of TEER analysis of HUVECs at the 6 hour time point are shown. BSA-S1P is the well-established activator of the S1PR1 and it was tested whether Human ApoMFc-S1P, Mouse ApoMFc-S1P gave equivalent induction of receptor activation. All results are normalized to individual well baselines (baseline=1), expressed as the mean of triplicate wells, and Standard Deviation (S.D.) is expressed as gray vertical bars over the course of the data set. […]
0.1 ml of Human Umbilical Vascular Endothelial Cells (HUVECS; 200,000 cells/ml in EGM-2 culture medium, Lonza) were seeded into a 96 well electrical conductance chamber (ECIS Cultureware; Applied Biophysics, Inc) pre-coated with 1% Fibronectin resuspended in Saline. After overnight incubation at 37° C./5% CO2, the 96-well plate was placed on the ECIS reader (Applied Biophysics; Ztheta 96-well array station) and baseline resistance was established which represents the quality of Endothelial junction strength or Endothelial barrier function. […]

[3] = free ApoM not associated with HDL; Faber et al. 2006; cited from earlier work

Molecule | activation of Gi-alpha coupling to the S1P1 receptor (S1P1 receptor [1]) | activation of beta-arrestin coupling to the S1P1 receptor (S1P1 receptor [2]) | endothelial barrier protection (TEER) (HUVECs) | half-life [3]
B1 | equivalently activates | equivalently activates | enhance endothelial Barrier Protection | –
B2 | – | – | – | extremely short

From US12415847B2, “ApoM-Fc fusion proteins for treating lung diseases” (Children's Medical Center Corporation, priority 2018, dated 2025)
